Measured values as given in PMC4198210.

Biological target: phosphorylated PhoP-His (recombinant N-terminal His-tag PhoP protein of Photorhabdus luminescens TT01, phosphorylated in vitro with acetyl phosphate) (Photorhabdus luminescens TT01)
Test: Mn2+-Phos-tag SDS-PAGE; 4 ug purified PhoP-His incubated in vitro with 50 mM acetyl phosphate (lane 2) or without (lane 1) in the EMSA buffer; precast 12.5% polyacrylamide Mn2+-Phos-tag gel run at 4°C and 150 V; Coomassie stain

Substance: phosphorylated PhoP-His (recombinant N-terminal His-tag PhoP protein of Photorhabdus luminescens TT01, phosphorylated in vitro with acetyl phosphate) (natural protein)
- stoichiometry N: 2
